Sequences and labels used below:
B1: human TGFβ receptor 1 (receptor, UniProt P36897 34-126, looked up)
chain: LQCFCHLCTKDNFTCVTDGLCFVSVTETTDKVIHNSMCIAEIDLIPRDRPFVCAPSSKTGSVTTTYCCNQDHCNKIELPTTVKSSPGLGPVEL
notes: Immobilised on a CM5 sensor by direct amine coupling; also called TGFβ R1; TGF-bR1
B2: polypeptide of SEQ ID NO:31 (a specific polypeptide of SEQ ID NO: 10, s1m1 family VacA-derived polypeptide) (other)
chain: AFFTTVIIPAIVGGIATGTAVGTVSGLLGWGLKQAEEANKTPDKPDKVWRIQAGKGFNEFPNKEYDLYKSLLSSKIDGGWDWGNAATHYWIKGGQWNKLEVDMKDAVGTYKLSGLRNFTGGDLDVNMQKATLRLGQFNGNSFTSYKDSADRTTRVDFNAKNILIDNFLEINNRVGSGAGRKASSTVLTLQASEGITSSKNAEISLYDGATLNLASNSVKLNGNVWMGRLQYVGAYLAPSYSTINTSKVTGEVNFNHLTVGDHNAAQAGIIASNKTHIGTLDLWQSAGLNIIAPPGGKDTVVNIDRINTKADGTIKVGGFKASLTTNAAHLNIGKGGVNLSNQASGRTLLVENLTGNITVDGPLRVNNQVGGYALAGSSANFEFKAGVDTKNGTATFNNDISLGRFVNLKVDAHTANFKGIDTGNGGFNTLDFSGVTNKVNINKLITASTNVAVKNFNINELIVKTNGVSVGEYTHFSEDIGSQSRINTVRLETGTRSIFSGGVKFKSGEKLVIDEFYYSPWNYFDARNIKNVEITRKFASSTPENPWGTSKLMFNNLTLGQNAVMDYSQFSNLTIQGDFINNQGTINYLVRGGKVATLNVGNAAAMMFNNDIDSATGFYKPLIKINSAQDLIKNTEHVLLKAKIIGYGNVSTGTNGISNVNLEEQFKERLALYNNNNRMDTCVVRNTDDIKACGMAIGNQSMVNNPDNYKYLIGKAWKNIGISKTANGSKISVYYLGNSTPTENGGNTTNLPTNTTNNARFASYA
notes: Engineered polypeptide derived from the H. pylori VacA s1m1 family, expressed in CHO or HEK cells and purified

For experiment [1], the target named is B2. Description: SPR (Biacore T200), TGFβ R1 amine-coupled on CM5, multi-cycle, two-state kinetic model.
For experiment [2], the target named is B2. Description: SPR (Biacore T200), TGFβ R1 amine-coupled on CM5, equilibrium model.
In experiment [3] the target is T1, human TGFβ receptor 2 (human, UniProt P37173 23-166, limits assumed).
T1 construct: Immobilised on a CM5 sensor by direct amine coupling; also called TGFβ R2; TGFB-R2
The experiment is described as follows: SPR (Biacore T200), TGFβ R2 amine-coupled on CM5, equilibrium model. For orientation: In SPR one partner is held on a chip, and binding of the other changes the refractive index at the surface.

Experiment [4] has as its target T1, human TGFβ receptor 2. Description: SPR (Biacore T200), TGFβ R2 amine-coupled on CM5, multi-cycle, two-state kinetic model.

T1 sequence (P37173 23-166 limits assumed): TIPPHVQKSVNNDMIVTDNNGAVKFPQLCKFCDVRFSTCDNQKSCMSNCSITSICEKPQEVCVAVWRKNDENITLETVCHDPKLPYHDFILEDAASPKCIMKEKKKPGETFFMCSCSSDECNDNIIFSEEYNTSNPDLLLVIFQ

In experiment [1], B1 yielded a Kd of 2.31 µM, a koff of 0.603 s⁻¹ and a kon of 220000 M⁻¹ s⁻¹. Binding in experiment [2] was characterised by a dissociation constant (Kd) of 2.9 µM.
In turn, B2 came in with a Kd in the experiment with human TGFβ receptor 2 [3] of 5.61 µM. Also, in the experiment with human TGFβ receptor 2 [4], the affinity, expressed as Kd, was 5.07 µM; the koff stood at 6670 s⁻¹; the kon stood at 1.08e+09 M⁻¹ s⁻¹.

Usually Kd stands for the constant that tells how readily two partners part at equilibrium. Low readings indicate tighter binding, high ones weaker binding. As usually defined, the koff is the first-order rate constant of dissociation. A low value points to a long-lived complex. A word on the kon: it is the rate constant with which the complex forms. A high value points to faster complex formation.

The values are drawn from EP4669337B1 (ATOPIA THERAPEUTICS SA, dated 2025).
